What was measured:
BCL-2 expression = assay: IL-7 induced BCL-2 expression in HPB-ALL, flow cytometry; assay type: cell-based, human; details: humanized antibodies, 33 nM, vs ritlecitinib
Description: Several assays, such as were proposed to study cell survival of HPB-ALL from literature [Ribeiro et al., Blood Adv., 2018; 2 (17): 2199-2213] was measured in terms of BCL2 (anti-apoptotic marker) expressing cells by flow cytometry. In brief, HPB-ALL was pre-treated with antibodies or inhibitors for an hour before stimulated with 50 ng/ml IL-7 for 3 days. Cells were harvested and stained with FITC-conjugated BCL-2 antibody (Biolegend) for flow cytometry analysis.

Jurkat T cells = assay: IL-9 rescue of ceramide induced Jurkat cell death, WST-8; assay type: cell-based, human; details: ceramide 50 μM; IL-9 50 ng/ml; three days
Description: Jurkat T cells were pretreated with anti-γc antibodies or ritlecitinib before the application of anti-tumor ceramide (50 μM) and IL-9 (50 ng/ml) for three days. To evaluate cell survival, 10 μl WST-8 reagent was added to each well and incubated for 4 hours before spectrophotometer measurement.

rat γc = assay: BLI binding kinetics to rat γc protein
Chain of rat γc (as listed by the source): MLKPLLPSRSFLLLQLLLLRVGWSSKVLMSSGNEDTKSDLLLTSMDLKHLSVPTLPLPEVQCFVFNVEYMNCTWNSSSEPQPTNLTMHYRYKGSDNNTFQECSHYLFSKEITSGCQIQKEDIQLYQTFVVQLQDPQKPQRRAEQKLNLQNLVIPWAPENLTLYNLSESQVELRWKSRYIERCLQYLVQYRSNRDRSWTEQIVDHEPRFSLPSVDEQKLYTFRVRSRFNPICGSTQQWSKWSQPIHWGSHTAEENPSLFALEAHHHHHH

| Molecule | suppression of IL-7 induced BCL-2 upregulation (BCL-2 expression) | suppression of IL-9 rescue of ceramide induced Jurkat cell death (Jurkat T cells) | Ka (rat γc) | Kdis (rat γc) |
| --- | --- | --- | --- | --- |
| hSM-05A: full-length humanized anti-γc antibody derived from SM-05A by framework patching (antibody, V domains shown) VH: QVQLVQSGAEVLKPGASVKVSCKASGYTFTEYTMHWVKQARGQRLEWIGGIDPYNGGATYNQRFKGKATLTTDTSTSTAYMELRNLRSDDTAVYYCARRRLYYGNALDYWGQGTLVTVSS VL: DIVMTQSPLSLPVTPGEQASISCRSSQSLVHSNGNTYLHWYLQKPGQSPQLLIYKVSSRFSGVPDRFSGSGSGTDFTLKISRVEAEDVGVYFCSQTTHVPFTFGSGTKLEIKR | better suppression to IL-7 induced BCL-2 upregulation and CD127 degradation than ritlecitinib | could suppress the IL-9 effect |  |  |
| hSM-05E: full-length humanized anti-γc antibody derived from SM-05E by framework patching (antibody, V domains shown) VH: QVQLVQSGAEVLKPGASVKVSCKASGYTFTEYTMHWVKQARGQRLEWIGGIDPNTGGVTYNQKFKGKATLTTDTSTSTAYMELRNLRSDDTAVYYCARRRRYYGYALDYWGQGTLVTVSS VL: DIVMTQSPLSLPVTPGEQASISCRSSQSIVHSNGNTYLEWYLQKPGQSPQLLIYKVSNRFSGVPDRFSGSGSGTDFTLKISRVEAEDVGVYFCSQSTHVPFMFGSGTKLEIKR |  |  | 71000 M⁻¹ s⁻¹ | 0.00208 s⁻¹ |

Source: patent US20260209365A1, “ANTI-COMMON GAMMA CHAIN PROTEINS AND COMPOSITIONS OF MATTER” (SINOMAB BIOSCIENCE LIMITED, priority 2023, published 2026)
